Each block holds one binder with its values, some of them ahead of it.
Key:
human topoisomerase IIα = human topoisomerase IIα (human, UniProt P11388 1-1531); experiment: pull-down
[1] = molecular target: DNA topoisomerase II alpha (Homo sapiens, UniProt P11388 1-1531); experiment: EMSA
DNA topoisomerase II alpha, sequence (P11388 whole entry): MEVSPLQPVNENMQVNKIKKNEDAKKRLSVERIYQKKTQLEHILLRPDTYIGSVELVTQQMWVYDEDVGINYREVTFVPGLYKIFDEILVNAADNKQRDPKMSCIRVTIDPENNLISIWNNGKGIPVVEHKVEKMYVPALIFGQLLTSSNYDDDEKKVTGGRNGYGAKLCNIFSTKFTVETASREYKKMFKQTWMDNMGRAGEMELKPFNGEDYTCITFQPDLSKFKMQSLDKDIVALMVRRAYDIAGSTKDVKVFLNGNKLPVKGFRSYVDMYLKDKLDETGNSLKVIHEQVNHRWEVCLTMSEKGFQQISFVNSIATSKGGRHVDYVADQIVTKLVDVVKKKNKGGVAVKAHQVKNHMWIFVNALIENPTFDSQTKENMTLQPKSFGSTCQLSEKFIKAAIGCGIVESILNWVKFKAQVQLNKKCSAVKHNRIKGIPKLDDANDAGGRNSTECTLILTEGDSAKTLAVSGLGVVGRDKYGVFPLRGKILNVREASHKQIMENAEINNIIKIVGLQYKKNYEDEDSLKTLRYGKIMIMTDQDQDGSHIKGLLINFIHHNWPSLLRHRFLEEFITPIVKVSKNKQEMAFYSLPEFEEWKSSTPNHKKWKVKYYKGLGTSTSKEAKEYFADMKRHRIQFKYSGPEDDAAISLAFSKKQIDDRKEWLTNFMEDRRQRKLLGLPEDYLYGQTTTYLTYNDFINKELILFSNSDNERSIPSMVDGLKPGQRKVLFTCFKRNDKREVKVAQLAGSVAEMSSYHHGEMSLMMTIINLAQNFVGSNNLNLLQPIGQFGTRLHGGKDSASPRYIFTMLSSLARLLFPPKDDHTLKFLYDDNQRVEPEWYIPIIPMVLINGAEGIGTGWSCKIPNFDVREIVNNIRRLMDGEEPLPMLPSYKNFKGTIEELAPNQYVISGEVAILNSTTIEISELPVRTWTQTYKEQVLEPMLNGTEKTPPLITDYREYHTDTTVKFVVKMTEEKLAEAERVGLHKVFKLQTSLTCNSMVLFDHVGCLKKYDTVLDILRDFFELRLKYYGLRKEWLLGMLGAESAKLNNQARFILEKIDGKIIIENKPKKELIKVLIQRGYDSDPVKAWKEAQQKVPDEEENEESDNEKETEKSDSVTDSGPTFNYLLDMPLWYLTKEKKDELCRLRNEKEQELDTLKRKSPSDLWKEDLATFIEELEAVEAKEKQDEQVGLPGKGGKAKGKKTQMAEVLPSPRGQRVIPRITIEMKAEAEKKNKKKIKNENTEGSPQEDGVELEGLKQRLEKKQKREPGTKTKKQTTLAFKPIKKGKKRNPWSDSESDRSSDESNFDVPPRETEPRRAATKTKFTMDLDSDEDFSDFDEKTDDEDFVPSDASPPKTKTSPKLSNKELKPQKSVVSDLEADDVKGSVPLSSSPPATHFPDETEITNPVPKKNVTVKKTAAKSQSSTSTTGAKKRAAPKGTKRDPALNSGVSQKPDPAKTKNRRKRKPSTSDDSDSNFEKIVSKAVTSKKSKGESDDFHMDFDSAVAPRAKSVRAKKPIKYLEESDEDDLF

human topoisomerase IIα, sequence (P11388 whole entry): as above

- binding result (human topoisomerase IIα): binds
B1: GST-HMGB1-ΔC (HMGB1 di-domain A+B, residues 1-180) (domain or fragment, rat, UniProt P63159 1-180, looked up)
chain: MGKGDPKKPRGKMSSYAFFVQTCREEHKKKHPDASVNFSEFSKKCSERWKTMSAKEKGKFEDMAKADKARYEREMKTYIPPKGETKKKFKDPNAPKRPPSAFFLFCSEYRPKIKGEHPGLSIGDVAKKLGEMWNNTAADDKQPYEKKAAKLKEKYEKDIAAYRAKGKPDAAKKGVVKAEK

- binding result (human topoisomerase IIα): binds
B2: GST-HMGB1 domain A (residues 1-88) (domain or fragment, rat, UniProt P63159 1-88, looked up)
chain: MGKGDPKKPRGKMSSYAFFVQTCREEHKKKHPDASVNFSEFSKKCSERWKTMSAKEKGKFEDMAKADKARYEREMKTYIPPKGETKKK

B3: 36-bp duplex oligo_1/oligo_2 (dsDNA)
DNA 1: ATGAAATCTAACAATGCGCTCATCGTCATCCTCGGC
DNA 2: GCCGAGGATGACGATGAGCGCATTGTTAGATTTCAT
- binding signal [1]: ~10 fold increase in topo IIα binding vs no HMGB1 (up to)

- binding result (human topoisomerase IIα): binds
B4: GST-HMGB1 domain B (residues 85-180) (domain or fragment, rat, UniProt P63159 85-180, looked up)
chain: TKKKFKDPNAPKRPPSAFFLFCSEYRPKIKGEHPGLSIGDVAKKLGEMWNNTAADDKQPYEKKAAKLKEKYEKDIAAYRAKGKPDAAKKGVVKAEK

From publication PMC1976466 (Nucleic Acids Research, 2007)
